Experiments:
[1] = target: E. coli type I Zorya ZorB, wild type (EcZorB) (E. coli); assay: cryo-EM structure
[2] = target: E. coli type I Zorya ZorA, wild type (EcZorA) (E. coli); assay: cryo-EM structure

| stoichiometry N [1] | stoichiometry N [2] | Substance |
| --- | --- | --- |
| 2 | – | E. coli type I Zorya ZorB, wild type (EcZorB) (natural protein) |
| – | 5 | E. coli type I Zorya ZorA, wild type (EcZorA) (natural protein) |
